# Laboratory results: PMC9351184, “Survey of the binding preferences of RNA-binding proteins to RNA editing events”
# Molecular target: ILF3 dsRBD;hnRNPC dsRBD (Homo sapiens;Homo sapiens, UniProt Q12906;P07910 398-590;16-57, |)
# Test: EMSA; both proteins pooled; simultaneous binding; 1 uM labelled RNA, 3 uM protein, 10 ul, on ice 45 min; 6% PAGE in 0.5x TBE (gel pre-run at 4 C); binding buffer, salt and pH not stated (proteins dialyzed in 25 mM Tris-HCl pH 8.0, 150 mM NaCl; final elution from cation exchange/heparin up to 1 M NaCl, then SEC)
# Details: protein: recombinant;recombinant, tags: N-terminal GST (pGood6p), removed with TEV;10xHis (pSUMOH10), label: 5' DY781
binder,measurement,value
"AGUGGCUUAUGCCUGUGAUCCCAACAC (ssRNA, A-to-I editing site represented by G as printed (A/G); inosine not stated) [edited RNA]",binding result,binds
